Data from the Immune Epitope Database (IEDB).
pKd: −log10 of the molar value.

Experiments:
HLA-B*40:01 = assay: IEDB peptide-MHC binding, purified MHC/competitive/radioactivity; filed as Kd, often an IC50 or EC50 that approximates it; ≥ and ≤ were set here for values at or beyond the usual limits of such assays
HLA-B*44:02 = assay: as above
HLA-B*44:03 = assay: as above
HLA-A*23:01 = assay: as above
HLA-A*26:01 = assay: as above
HLA-A*01:01 = assay: as above
HLA-A*24:02 = assay: as above
HLA-A*29:02 = assay: as above
HLA-A*30:02 = assay: as above
HLA-B*58:01 = assay: IEDB peptide-MHC binding, purified MHC/direct/fluorescence; filed as Kd, often an IC50 or EC50 that approximates it; ≥ and ≤ were set here for values at or beyond the usual limits of such assays; conditions: source organism: Yersinia pestis Antiqua
HLA-B*57:01 = assay: as above; conditions: source organism: Yersinia pestis Antiqua
HLA-B*15:01 [1] = assay: IEDB peptide-MHC binding, purified MHC/competitive/radioactivity; filed as Kd, often an IC50 or EC50 that approximates it; ≥ and ≤ were set here for values at or beyond the usual limits of such assays
HLA-A*11:01 = assay: as above; conditions: source organism: Vaccinia virus WR
HLA-A*03:01 = assay: as above; conditions: source organism: Vaccinia virus WR
HLA-A*68:01 = assay: as above; conditions: source organism: Vaccinia virus WR
HLA-A*33:01 = assay: as above; conditions: source organism: Vaccinia virus WR
HLA-A*31:01 = assay: as above; conditions: source organism: Vaccinia virus WR
HLA-B*15:01 [2] = assay: IEDB peptide-MHC binding, purified MHC/competitive/fluorescence; filed as Kd, often an IC50 or EC50 that approximates it; ≥ and ≤ were set here for values at or beyond the usual limits of such assays
HLA-B*53:01 = assay: IEDB peptide-MHC binding, purified MHC/competitive/radioactivity; filed as Kd, often an IC50 or EC50 that approximates it; ≥ and ≤ were set here for values at or beyond the usual limits of such assays; conditions: source organism: Dengue virus 4 Philippines/H241/1956
HLA-B*46:01 = assay: IEDB peptide-MHC binding, purified MHC/competitive/fluorescence; filed as Kd, often an IC50 or EC50 that approximates it; ≥ and ≤ were set here for values at or beyond the usual limits of such assays; conditions: source organism: Influenza A virus
HLA-A*30:01 = assay: IEDB peptide-MHC binding, purified MHC/competitive/radioactivity; filed as Kd, often an IC50 or EC50 that approximates it; ≥ and ≤ were set here for values at or beyond the usual limits of such assays; conditions: source organism: Dengue virus 3 Martinique/1243/1999
[3] = source organism: Dengue virus 2 Jamaica/1409/1983
[4] = source organism: Dengue virus 1 Singapore/S275/1990
[5] = source organism: Mammarenavirus lassaense
[6] = source organism: SARS coronavirus Tor2
[7] = source organism: Lassa virus Josiah
[8] = source organism: Vaccinia virus WR
[9] = source organism: Mammarenavirus juninense
[10] = source organism: Mammarenavirus brazilense
[11] = source organism: Lymphocytic choriomeningitis virus (strain Armstrong)
[12] = source organism: Mammarenavirus machupoense
[13] = source organism: Dengue virus 3 Martinique/1243/1999

## AEHTGREIV
HLA-B*40:01; [3]
  pKd: 7.20

## AENHHHATML
HLA-B*40:01; [4]
  pKd: 7.40
HLA-B*44:02; [4]
  pKd: 7.25
HLA-B*44:03; [4]
  pKd: 6.72

## AGFVAGLTY
HLA-A*23:01; [5]
  pKd: 5.10
HLA-A*26:01; [5]
  pKd: ≤ 4.11
HLA-A*01:01; [5]
  pKd: ≤ 4.45
HLA-A*24:02; [5]
  pKd: ≤ 4.28
HLA-A*29:02; [5]
  pKd: 6.89
HLA-A*30:02; [5]
  pKd: 6.28

## ASSALDAHF
HLA-B*58:01
  pKd: 8.36
HLA-B*57:01
  pKd: 6.40

## AWLVHRQWF
HLA-A*23:01; [3]
  pKd: 6.47
HLA-A*24:02; [3]
  pKd: 6.79

## DPAKAYKDY
HLA-A*23:01; [6]
  pKd: ≤ 4.11
HLA-A*26:01; [6]
  pKd: ≤ 4.07
HLA-A*01:01; [6]
  pKd: ≤ 3.92
HLA-A*24:02; [6]
  pKd: ≤ 4.11
HLA-A*29:02; [6]
  pKd: 6.35
HLA-A*30:02; [6]
  pKd: 5.03

## EGKDTPGGY
HLA-A*23:01; [7]
  pKd: ≤ 4.20
HLA-A*26:01; [7]
  pKd: ≤ 4.11
HLA-A*01:01; [7]
  pKd: ≤ 4.42
HLA-A*24:02; [7]
  pKd: ≤ 4.11
HLA-A*29:02; [7]
  pKd: ≤ 4.10
HLA-A*30:02; [7]
  pKd: ≤ 4.11

## EIKTGISSF
HLA-B*15:01 [1]; [8]
  pKd: 7.05

## EISSTFNRF
HLA-B*15:01 [1]; [8]
  pKd: 6.88

## ELADTSLSGY
HLA-A*23:01; [6]
  pKd: ≤ 4.15
HLA-A*26:01; [6]
  pKd: 7.61
HLA-A*01:01; [6]
  pKd: 7.13
HLA-A*24:02; [6]
  pKd: ≤ 4.15
HLA-A*29:02; [6]
  pKd: 7.05
HLA-A*30:02; [6]
  pKd: 7.12

## EMVCFHEFL
HLA-A*23:01; [9]
  pKd: 5.70
HLA-A*24:02; [9]
  pKd: 4.77
HLA-A*29:02; [9]
  pKd: ≤ 5.00

## EQKAYVPAM
HLA-B*15:01 [1]; [8]
  pKd: 9.11

## ESASKSASVY
HLA-A*23:01; [6]
  pKd: ≤ 4.15
HLA-A*26:01; [6]
  pKd: 6.54
HLA-A*01:01; [6]
  pKd: 6.52
HLA-A*24:02; [6]
  pKd: ≤ 4.15
HLA-A*29:02; [6]
  pKd: 6.43
HLA-A*30:02; [6]
  pKd: 6.18

## EYGFTRRFKF
HLA-A*23:01; [10]
  pKd: 7.34
HLA-A*24:02; [10]
  pKd: 6.87
HLA-A*29:02; [10]
  pKd: 6.88

## FEEYKRSGI
HLA-B*40:01; source organism: Dengue virus 4 Philippines/H241/1956
  pKd: 5.89

## FIESSICLDY
HLA-A*11:01
  pKd: 5.41
HLA-A*03:01
  pKd: 5.53
HLA-A*68:01
  pKd: 6.02
HLA-A*33:01
  pKd: 5.25
HLA-A*29:02; [8]
  pKd: ≤ 4.39
HLA-A*31:01
  pKd: 5.00

## FLCDDTITY
HLA-B*15:01 [2]; source organism: West Nile virus
  pKd: 6.53

## FPQSNSPIE
HLA-B*53:01
  pKd: 6.61

## FQNVNKITY
HLA-B*15:01 [2]; source organism: Influenza A virus
  pKd: 6.81
HLA-B*46:01
  pKd: 5.52

## FQPQNGQFI
HLA-A*23:01; [11]
  pKd: ≤ 4.69
HLA-A*26:01; [11]
  pKd: ≤ 4.11
HLA-A*01:01; [11]
  pKd: ≤ 4.11
HLA-A*24:02; [11]
  pKd: 5.90
HLA-A*29:02; [11]
  pKd: ≤ 4.10
HLA-A*30:02; [11]
  pKd: ≤ 4.11

## FYLCFLAFLL
HLA-A*23:01; [6]
  pKd: 10.17
HLA-A*26:01; [6]
  pKd: ≤ 4.16
HLA-A*01:01; [6]
  pKd: ≤ 4.28
HLA-A*24:02; [6]
  pKd: 7.87
HLA-A*29:02; [6]
  pKd: 7.12
HLA-A*30:02; [6]
  pKd: ≤ 4.07

## GECIKTCVF
HLA-B*15:01 [1]; [8]
  pKd: 6.94

## GEHKKLAEAI
HLA-B*40:01; [3]
  pKd: 7.27

## GERSRCYSVY
HLA-A*23:01; [12]
  pKd: ≤ 4.31
HLA-A*26:01; [12]
  pKd: ≤ 4.16
HLA-A*01:01; [12]
  pKd: ≤ 4.15
HLA-A*24:02; [12]
  pKd: ≤ 4.15
HLA-A*29:02; [12]
  pKd: ≤ 4.15
HLA-A*30:02; [12]
  pKd: 5.35

## GTIMVSEHF
HLA-B*15:01 [1]; [8]
  pKd: 7.24

## GVPLLAIGCY
HLA-A*26:01; [3]
  pKd: 6.89
HLA-A*30:02; [3]
  pKd: 5.47

## HEWMTTEDM
HLA-B*40:01; [3]
  pKd: 6.42
HLA-B*44:02; [3]
  pKd: 5.71
HLA-B*44:03; [3]
  pKd: 5.82

## HTSEHGGRAY
HLA-A*26:01; [13]
  pKd: 6.79
HLA-A*01:01; [13]
  pKd: 5.99
HLA-B*15:01 [1]; [13]
  pKd: 6.84
HLA-A*30:02; [13]
  pKd: ≤ 4.36

## IFFASFYYI
HLA-A*23:01; [6]
  pKd: 8.19
HLA-A*26:01; [6]
  pKd: 5.74
HLA-A*01:01; [6]
  pKd: 5.89
HLA-A*24:02; [6]
  pKd: 7.91
HLA-A*29:02; [6]
  pKd: 7.55
HLA-A*30:02; [6]
  pKd: 5.29

## ISQHNHRPGY
HLA-A*01:01; [13]
  pKd: 4.82
HLA-A*30:01
  pKd: 7.91
HLA-A*30:02; [13]
  pKd: 7.00
